Results published in publication PMC12389326, “The Impact of the Injected Mass of the Gastrin-Releasing Peptide Receptor Antagonist on Uptake in Breast Cancer: Lessons from a Phase I Trial of [^99mTc]Tc-DB8” (Pharmaceutics, 2025).

How the values were obtained:
[1] = clinical; parameters: species or system human; conditions: in vivo; for tissue uptake dose at 4 h / tissue uptake dose at 6 h / tissue uptake dose at 24 h / tissue uptake dose at 2 h: human, SD
Experimental: Imaging was performed using a Siemens Symbia Intevo Bold scanner equipped with a high-resolution, low-energy collimator. Anterior and posterior planar whole-body imaging (at a scan speed of 12 cm/min, 1024 × 256 pixel matrix) was performed at 2, 4, 6, and 24 h after injection of [^99mTc]Tc-DB8. SPECT/CT scans (SPECT: 60 projections, 20 s each, stored in 256 × 256 pixel matrix/CT: 130 kV, effective 36 mAs) covering the area from the neck to liver were performed 2, 4, and 6 h after injection of [^99mTc]Tc-DB8. SPECT images were reconstructed using xSPECT (Siemens) protocol based on the ordered subset conjugate gradient (OSCG) method (24 iterations, 2 subsets) with a 3D Gaussian FWHM 10 mm filter (Soft Tissue). The images were processed using the proprietary software package Syngo.via Workstation (Siemens Healthineers).
(§1) Dosimetry was evaluated as described in [44]. Briefly, regions of interest (ROI) were drawn over organs of interest and over the whole body on the anterior and posterior whole-body images of patients injected with [^99mTc]Tc-DB8; a geometric mean of counts at 2, 4, 6, and 24 h was calculated for each ROI. To assess elimination kinetics in blood, a ROI was placed over the heart. For quantification, a known activity of Tc-99m in a water-filled phantom in combination with Chang’s correction was used. Data were fitted by single exponential functions and residence time was calculated as areas under fitted curves using GraphPad Prism 8.0 (GraphPad Software, San Diego, CA, USA). Absorbed doses were calculated by OLINDA/EXM 1.1 using Adult Female phantom.

[2] = parameters: species or system human; conditions: in vivo
Experimental: as §1

[3] = cited from earlier work
Experimental: The injected activities were selected to enable good counting statistics, permitting accurate dosimetry calculations up to 24 h after injection. […] Considering that the clear SPECT visualization was already observed 2 h after injection, the injected activ ...

[4] = 40 ug, Uptake in Liver (decay-corrected)
[5] = 40 ug, Uptake in Lungs (decay-corrected)
[6] = 40 ug, Uptake in Pancreas (decay-corrected)
[7] = 40 ug, total radioactivity, Uptake in Breast (decay-corrected)
[8] = 40 ug, total radioactivity, Uptake in Kidney (decay-corrected)
[9] = 40 ug, total radioactivity, Uptake in Small Intestine (decay-corrected)
[10] = 80 ug, Uptake in Liver (decay-corrected)
[11] = 80 ug, Uptake in Lungs (decay-corrected)
[12] = 80 ug, Uptake in Pancreas (decay-corrected)
[13] = 80 ug, total radioactivity, Uptake in Breast (decay-corrected)
[14] = 80 ug, total radioactivity, Uptake in Kidney (decay-corrected)
[15] = 80 ug, total radioactivity, Uptake in Small Intestine (decay-corrected)
[16] = 120 ug, Uptake in Liver (decay-corrected)
[17] = 120 ug, Uptake in Lungs (decay-corrected)
[18] = 120 ug, Uptake in Pancreas (decay-corrected)
[19] = 120 ug, total radioactivity, Uptake in Breast (decay-corrected)
[20] = 120 ug, total radioactivity, Uptake in Kidney (decay-corrected)
[21] = 120 ug, total radioactivity, Uptake in Small Intestine (decay-corrected)

**Q.** For `CCNC(=O)[C@H](CC(C)C)NC(=O)[C@H](Cc1c[nH]cn1)NC(=O)CNC(=O)[C@@H](NC(=O)[C@H](C)NC(=O)[C@H](Cc1c[nH]c2ccccc12)NC(=O)[C@H](CCC(N)=O)NC(=O)[C@@H](Cc1ccccc1)NC(=O)COCC(=O)Nc1ccc(CNC(=O)C(CNCCN)CNCCN)cc1)C(C)C` [[^99mTc]Tc-DB8, metal not drawn], which tissue uptake dose at 4 h [1, 4] is on record?
**A.** 2.1 ± 1.1 %ID

**Q.** And the tissue uptake dose at 6 h [1, 4]?
**A.** 1.6 ± 0.8 %ID

**Q.** And the tissue uptake dose at 24 h [1, 4]?
**A.** 0.8 ± 0.4 %ID

**Q.** What about the tissue uptake dose at 2 h [1, 5] of the same molecule?
**A.** 3.8 ± 0.5 %ID

**Q.** And the tissue uptake dose at 4 h [1, 5]?
**A.** 2.3 ± 0.3 %ID

**Q.** And the tissue uptake dose at 6 h [1, 5]?
**A.** 1.6 ± 0.2 %ID

**Q.** And the tissue uptake dose at 24 h [1, 5]?
**A.** 0.7 ± 0.1 %ID

**Q.** And the tissue uptake dose at 2 h [1, 6]?
**A.** 1.5 ± 0.5 %ID

**Q.** And the tissue uptake dose at 4 h [1, 6]?
**A.** 0.9 ± 0.4 %ID

**Q.** And the tissue uptake dose at 6 h [1, 6]?
**A.** 0.7 ± 0.3 %ID

**Q.** What about the tissue uptake dose at 24 h [1, 6] of the same molecule?
**A.** 0.35 ± 0.09 %ID

**Q.** And the tissue uptake dose at 2 h [1, 7]?
**A.** 4.2 ± 1.1 %ID

**Q.** What about the tissue uptake dose at 4 h [1, 7] of the same molecule?
**A.** 2.4 ± 0.4 %ID

**Q.** What about the tissue uptake dose at 6 h [1, 7] of the same molecule?
**A.** 1.7 ± 0.3 %ID

**Q.** And the tissue uptake dose at 24 h [1, 7]?
**A.** 0.7 ± 0.1 %ID

**Q.** And the tissue uptake dose at 2 h [1, 8]?
**A.** 3.1 ± 1.9 %ID

**Q.** What about the tissue uptake dose at 4 h [1, 8] of the same molecule?
**A.** 2.1 ± 0.9 %ID

**Q.** What about the tissue uptake dose at 6 h [1, 8] of the same molecule?
**A.** 1.6 ± 0.5 %ID

**Q.** What about the tissue uptake dose at 24 h [1, 8] of the same molecule?
**A.** 0.9 ± 0.2 %ID

**Q.** And the tissue uptake dose at 2 h ([1]; 40 ug, total radioactivity, Uptake in Liver (decay-corrected))?
**A.** 3 ± 1.6 %ID

**Q.** What about the tissue uptake dose at 2 h [1, 9] of the same molecule?
**A.** 4.2 ± 1.6 %ID

**Q.** And the tissue uptake dose at 4 h [1, 9]?
**A.** 2.8 ± 1.1 %ID

**Q.** What about the tissue uptake dose at 6 h [1, 9] of the same molecule?
**A.** 2.1 ± 0.7 %ID

**Q.** And the tissue uptake dose at 24 h [1, 9]?
**A.** 1.4 ± 0.3 %ID

**Q.** And the tissue uptake dose at 2 h [1, 10]?
**A.** 3.3 ± 0.9 %ID

**Q.** And the tissue uptake dose at 4 h [1, 10]?
**A.** 2.2 ± 0.8 %ID

**Q.** What about the tissue uptake dose at 6 h [1, 10] of the same molecule?
**A.** 1.4 ± 0.7 %ID

**Q.** What about the tissue uptake dose at 24 h [1, 10] of the same molecule?
**A.** 0.7 ± 0.3 %ID

**Q.** And the tissue uptake dose at 2 h [1, 11]?
**A.** 5.9 ± 1.6 %ID

**Q.** What about the tissue uptake dose at 4 h [1, 11] of the same molecule?
**A.** 4.1 ± 1.6 %ID

**Q.** What about the tissue uptake dose at 6 h [1, 11] of the same molecule?
**A.** 2.8 ± 1.2 %ID

**Q.** And the tissue uptake dose at 24 h [1, 11]?
**A.** 0.9 ± 0.4 %ID

**Q.** What about the tissue uptake dose at 2 h [1, 12] of the same molecule?
**A.** 1.2 ± 0.3 %ID

**Q.** What about the tissue uptake dose at 4 h [1, 12] of the same molecule?
**A.** 0.8 ± 0.3 %ID

**Q.** And the tissue uptake dose at 6 h [1, 12]?
**A.** 0.6 ± 0.3 %ID

**Q.** What about the tissue uptake dose at 24 h [1, 12] of the same molecule?
**A.** 0.2 ± 0.1 %ID

**Q.** What about the tissue uptake dose at 2 h [1, 13] of the same molecule?
**A.** 6.2 ± 1.9 %ID

**Q.** And the tissue uptake dose at 4 h [1, 13]?
**A.** 3.4 ± 1.7 %ID

**Q.** What about the tissue uptake dose at 6 h [1, 13] of the same molecule?
**A.** 2.7 ± 1.2 %ID

**Q.** And the tissue uptake dose at 24 h [1, 13]?
**A.** 0.8 ± 0.4 %ID

**Q.** And the tissue uptake dose at 2 h [1, 14]?
**A.** 5.1 ± 2.1 %ID

**Q.** What about the tissue uptake dose at 4 h [1, 14] of the same molecule?
**A.** 2.8 ± 0.9 %ID

**Q.** And the tissue uptake dose at 6 h [1, 14]?
**A.** 2.2 ± 0.9 %ID

**Q.** And the tissue uptake dose at 24 h [1, 14]?
**A.** 1.2 ± 0.8 %ID

**Q.** And the tissue uptake dose at 2 h [1, 15]?
**A.** 3.4 ± 1.1 %ID

**Q.** And the tissue uptake dose at 4 h [1, 15]?
**A.** 2.2 ± 0.6 %ID

**Q.** And the tissue uptake dose at 6 h [1, 15]?
**A.** 1.6 ± 0.6 %ID

**Q.** What about the tissue uptake dose at 24 h [1, 15] of the same molecule?
**A.** 0.7 ± 0.4 %ID

**Q.** What about the tissue uptake dose at 2 h [1, 16] of the same molecule?
**A.** 2.2 ± 0.9 %ID

**Q.** What about the tissue uptake dose at 4 h [1, 16] of the same molecule?
**A.** 1.5 ± 0.7 %ID

**Q.** What about the tissue uptake dose at 6 h [1, 16] of the same molecule?
**A.** 1.1 ± 0.5 %ID

**Q.** And the tissue uptake dose at 24 h [1, 16]?
**A.** 0.5 ± 0.2 %ID

**Q.** What about the tissue uptake dose at 2 h [1, 17] of the same molecule?
**A.** 3.5 ± 1.3 %ID

**Q.** What about the tissue uptake dose at 4 h [1, 17] of the same molecule?
**A.** 2 ± 1 %ID

**Q.** And the tissue uptake dose at 6 h [1, 17]?
**A.** 1.6 ± 0.7 %ID

**Q.** And the tissue uptake dose at 24 h [1, 17]?
**A.** 0.6 ± 0.2 %ID

**Q.** And the tissue uptake dose at 2 h [1, 18]?
**A.** 0.8 ± 0.2 %ID

**Q.** What about the tissue uptake dose at 4 h [1, 18] of the same molecule?
**A.** 0.5 ± 0.1 %ID

**Q.** What about the tissue uptake dose at 6 h [1, 18] of the same molecule?
**A.** 0.34 ± 0.09 %ID

**Q.** And the tissue uptake dose at 24 h [1, 18]?
**A.** 0.15 ± 0.06 %ID

**Q.** What about the tissue uptake dose at 2 h [1, 19] of the same molecule?
**A.** 3.5 ± 1.1 %ID

**Q.** What about the tissue uptake dose at 4 h [1, 19] of the same molecule?
**A.** 2 ± 0.8 %ID

**Q.** What about the tissue uptake dose at 6 h [1, 19] of the same molecule?
**A.** 1.3 ± 0.5 %ID

**Q.** And the tissue uptake dose at 24 h [1, 19]?
**A.** 0.6 ± 0.2 %ID

**Q.** What about the tissue uptake dose at 2 h [1, 20] of the same molecule?
**A.** 3.5 ± 1.6 %ID

**Q.** What about the tissue uptake dose at 4 h [1, 20] of the same molecule?
**A.** 2.2 ± 1 %ID

**Q.** What about the tissue uptake dose at 6 h [1, 20] of the same molecule?
**A.** 1.7 ± 0.8 %ID

**Q.** What about the tissue uptake dose at 24 h [1, 20] of the same molecule?
**A.** 1.1 ± 0.4 %ID

**Q.** What about the tissue uptake dose at 2 h [1, 21] of the same molecule?
**A.** 3.3 ± 1 %ID

**Q.** And the tissue uptake dose at 4 h [1, 21]?
**A.** 2.1 ± 0.7 %ID

**Q.** And the tissue uptake dose at 6 h [1, 21]?
**A.** 1.8 ± 0.6 %ID

**Q.** And the tissue uptake dose at 24 h [1, 21]?
**A.** 1.1 ± 0.4 %ID

**Q.** And the Route of elimination [1]?
**A.** predominantly via the kidneys

**Q.** What about the “Absorbed dose, Urinary bladder wall” value [2] of the same molecule?
**A.** 0.02 ± 0.01 mGy/MBq

**Q.** What about the Absorbed equivalent dose [2] of the same molecule?
**A.** 4.6 mSv

**Q.** What about the Effective dose [2] of the same molecule?
**A.** 0.009–0.014 mSv/MBq

**Q.** For [^18F]FDG, which “Absorbed dose after injection for visualization of breast cancer” value [3] is on record?
**A.** 2.5–4.3 mSv
